# Reference: EP4818209A2 (Primatope Therapeutics Inc., dated 2026)
# Molecular target: T1, recombinant human CD40 (human, UniProt P25942 21-120, limits assumed)
# T1 construct: biotinylated there; also called hCD40; purified CD40
# Experiment: binding kinetics to human CD40
# T1 sequence (P25942 21-120 limits assumed): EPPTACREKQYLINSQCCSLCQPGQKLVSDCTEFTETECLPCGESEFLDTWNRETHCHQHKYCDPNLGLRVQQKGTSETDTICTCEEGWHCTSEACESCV
binder,measurement,value
"humanized 2C10 antibody, Clone 2.189.2 (2C10_h3 + 2C10_l2) (antibody, V domains shown, also called h2C10; mAb 2.189.2) VH: QVQLVQSGAEVKKPGASVKVSCKASGYTFTNYWMHWVRQAPGQRLEWIGYINPSNDYTKYNQKFKDRATLTADKSANTAYMELSSLRSEDTAVYYCARQGFPYWGQGTLVTVSS VL: EIVLTQSPATLSLSPGERATLSCSASSSVSYMHWYQQKPGQAPRRWIYDTSKLASGVPARFSGSGSGTDYTLTISSLEPEDFAVYYCHQLSSDPFTFGGGTKVEIK",fold difference of affinity against murine 2C10,≤ 2 fold
